{
  "source": "paper PMC2885444",
  "about": "(The Biochemical journal, 2009)",
  "molecular_target": "CHD4 PHD2 finger, wild type (UniProt Q14839 446-501)",
  "test": "other fluorescence titration + NMR titration",
  "data": [
    {"binder": "ARTKQTARKSTG (trimethyl-lysine at 4)", "note": "[H3K4me3 peptide (12-mer histone tail peptide)]", "values": [
      {"measurement": "Kd", "value": 2000, "unit": "µM"}
    ]}
  ]
}
